For this experiment, the target named is FcγRI (UniProt P12314). The experiment can be described thus: BLI (Fortebio Octet), FcγRI immobilized on HIS1K sensor, antibody 3.12-50 nM, 1:1 fit. In general terms: BLI is a label-free optical method that tracks binding on a fibre tip over time.

Drawing on patent US20250114450A1, “PHARMACEUTICAL COMBINATION CONTAINING ANTI-PD-1-ANTI-VEGFA BISPECIFIC ANTIBODY, AND USE THEREOF” (Akeso Biopharma, Inc., priority 2021, published 2025), this text covers Kd for one substance.

Sequence of FcγRI (P12314 16-288 limits assumed): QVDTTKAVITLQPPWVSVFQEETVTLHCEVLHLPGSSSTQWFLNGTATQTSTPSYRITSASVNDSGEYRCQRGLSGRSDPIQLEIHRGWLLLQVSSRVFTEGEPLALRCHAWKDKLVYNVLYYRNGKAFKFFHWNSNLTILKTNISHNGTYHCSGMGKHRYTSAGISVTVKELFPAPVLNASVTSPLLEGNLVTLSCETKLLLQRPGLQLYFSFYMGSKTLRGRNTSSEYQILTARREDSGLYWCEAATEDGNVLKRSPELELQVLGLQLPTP

In general, Kd refers to the equilibrium constant for the complex coming apart. Higher therefore signals a looser complex. Turning to Nivolumab (antibody), the Kd is 6.2 nM.
